Test results: patent US20140178332A1 (published 2014)

T1: recombinant purified human IL-12 p70 (human, UniProt P29459 23-219)
T1 sequence 1: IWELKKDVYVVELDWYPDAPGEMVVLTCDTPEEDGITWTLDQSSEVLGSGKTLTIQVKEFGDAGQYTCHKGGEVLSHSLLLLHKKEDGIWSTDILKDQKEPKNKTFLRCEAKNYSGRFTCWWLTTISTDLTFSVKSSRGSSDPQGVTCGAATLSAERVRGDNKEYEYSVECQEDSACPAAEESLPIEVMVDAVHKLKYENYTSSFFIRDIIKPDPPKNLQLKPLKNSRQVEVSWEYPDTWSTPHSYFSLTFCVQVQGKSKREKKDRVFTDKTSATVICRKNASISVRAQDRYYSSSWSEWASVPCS
T1 sequence 2: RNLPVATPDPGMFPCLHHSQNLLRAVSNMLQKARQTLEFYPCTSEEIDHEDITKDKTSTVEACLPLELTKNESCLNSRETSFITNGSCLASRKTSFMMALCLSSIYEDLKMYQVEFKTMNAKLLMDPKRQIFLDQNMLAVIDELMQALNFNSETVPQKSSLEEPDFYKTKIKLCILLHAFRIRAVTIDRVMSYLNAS


Legend:
[1] = biological target: T1, recombinant purified human IL-12 p70; test: cell-based or functional assay
[2] = biological target: T1, recombinant purified human IL-12 p70; test: competition ELISA on coated human IL-12, competitor of 0.8 µg/ml biotinylated 8E1, Expt. 3
Description: (§1) MaxiSorp ELISA plates (Nalge Nunc International) were coated overnight at 4° C. with 100 μl/well of 1.0 μg/ml human IL-12 in 0.2 M sodium carbonate-bicarbonate buffer, pH 9.4, washed with Wash Buffer (PBS containing 0.1% Tween 20), and blocked for 1 hr at room temperature with 300 μl/well of SuperBlock Blocking Buffer in TBS (Pierce Chemical Company). […] As isotype controls, 100 μl/well of 100 μg/ml mouse IgG 1/κ (MuFd79) or humanized IgG1/κ (HuFd79) monoclonal antibodies in ELISA buffer was used. As a no-competitor control, 100 μl/well of ELISA Buffer was used. After incubating the plates for 1 hr at room temperature, and washing with Wash Buffer, bound antibodies were detected using 100 μl/well of 1 μg/ml HRP-conjugated streptavidin (Pierce Chemical Company) in ELISA buffer. After incubating for 1 hr at room temperature, and washing with Wash Buffer, color development was performed by adding 100 μl/well of ABTS Peroxidase Substrate/Peroxidase Solution B (KPL, Inc.). After incubating for 5 min at room temperature, color development was stopped by adding 50 μl/well of 2% oxalic acid. Absorbance was read at 415 nm.
(§2) The affinity of 8E1.4, 8E1.5 and 8E1.6 to human IL-12 was analyzed by competition ELISA as described above.

[3] = biological target: T1, recombinant purified human IL-12 p70; test: SPR (Biacore) according to Example 1.1.B
Description: The BIACORE assay (Biacore, Inc, Piscataway, N.J.) determines the affinity of antibodies with kinetic measurements of on-, off-rate constants. Binding of antibodies to recombinant purified human IL-12 p70 or recombinant purified human IL-12 p40 were determined by surface plasmon resonance-based measurements with a Biacore® 3000 instrument (Biacore® AB, Uppsala, Sweden) using running HBS-EP (10 mM HEPES [pH 7.4], 150 mM NaCl, 3 mM EDTA, and 0.005% surfactant P20) at 25° C. All chemicals were obtained from Biacore® AB (Uppsala, Sweden) or otherwise from a different source as described in the text. Approximately 5000 RU of goat anti-mouse IgG, (Fcγ), fragment specific polyclonal antibody (Pierce Biotechnology Inc, Rockford, Ill.) diluted in 10 mM sodium acetate (pH 4.5) was directly immobilized across a CM5 research grade biosensor chip using a standard amine coupling kit according to manufacturer's instructions and procedures at 25 μg/ml. Unreacted moieties on the biosensor surface were blocked with ethanolamine. Modified carboxymethyl dextran surface in flowcell 2 and 4 was used as a reaction surface. Unmodified carboxymethyl dextran without goat anti-mouse IgG in flow cell 1 and 3 was used as the reference surface. For kinetic analysis, rate equations derived from the 1:1 Langmuir binding model were fitted simultaneously to association and dissociation phases of all eight injections (using global fit analysis) with the use of Biaevaluation 4.0.1 software. Purified antibodies were diluted in HEPES-buffered saline for capture across goat anti-mouse IgG specific reaction surfaces. Mouse antibodies to be captured as a ligand (25 μg/ml) were injected over reaction matrices at a flow rate of 5 μl/min. The association and dissociation rate constants, kₒₙ (unit M⁻¹ s⁻¹) and koff (unit s⁻¹) were determined under a continuous flow rate of 25 μl/min. Rate constants were derived by making kinetic binding measurements at ten different antigen concentrations ranging from 10-200 nM. The equilibrium dissociation constant (unit M) of the reaction between mouse antibodies and recombinant purified human IL-12 p70 or recombinant purified human IL-12 p40 was then calculated from the kinetic rate constants by the following formula: KD=koff/kₒₙ. Binding is recorded as a function of time and kinetic rate constants are calculated.

[4] = biological target: T1, recombinant purified human IL-12 p70; test: competition ELISA on coated human IL-12, competitor of 0.8 µg/ml biotinylated 8E1, average
Description: as §1, §2

[5] = biological target: T1, recombinant purified human IL-12 p70; test: competition ELISA on coated human IL-12, competitor of 0.8 µg/ml biotinylated 8E1, Expt. 2
Description: MaxiSorp ELISA plates (Nalge Nunc International) were coated overnight at 4° C. with 100 μl/well of 1.0 μg/ml human IL-12 in 0.2 M sodium carbonate-bicarbonate buffer, pH 9.4, washed with Wash Buffer (PBS containing 0.1% Tween 20), and blocked for 1 hr at room temperature with 300 μl/well of SuperBlock Blocking Buffer in TBS (Pierce Chemical Company). After washing with Wash Buffer, a mixture of biotinylated 8E 1 ([…] final concentration) and competitor antibody (8E1 or 8E1.4 or 8E1.5 or 8E1.6) starting at 100 μg/ml final concentration and serially diluted 3-fold) in 100 μl/well of ELISA buffer was added in duplicate. As isotype controls, 100 μl/well of 100 μg/ml mouse IgG 1/κ (MuFd79) or humanized IgG1/κ (HuFd79) monoclonal antibodies in ELISA buffer was used. As a no-competitor control, 100 μl/well of ELISA Buffer was used. After incubating the plates for 1 hr at room temperature, and washing with Wash Buffer, bound antibodies were detected using 100 μl/well of 1 μg/ml HRP-conjugated streptavidin (Pierce Chemical Company) in ELISA buffer. After incubating for 1 hr at room temperature, and washing with Wash Buffer, color development was performed by adding 100 μl/well of ABTS Peroxidase Substrate/Peroxidase Solution B (KPL, Inc.). […] Absorbance was read at 415 nm.
as §2

[6] = biological target: T1, recombinant purified human IL-12 p70; test: competition ELISA on coated human IL-12, competitor of 0.8 µg/ml biotinylated 8E1, Expt. 1
Description: as §1, §2

Av. IC50 (nM) huIL-12, PHA blast assay [1]	IC50 [2]	Kd [3]	koff [3]	kon [3]	IC50 [4]	IC50 [5]	IC50 [6]	Binder
12 nM	8.33 µg/mL	1.3 nM	0.001 s⁻¹	800000 M⁻¹ s⁻¹	–	–	–	additional humanized anti-IL-12 antibody 8E1.4 (antibody, IgG1, V domains shown, IgG1/kappa) VH: EVQLVESGGGLVQPGGSLRLSCAASGFTFSDYGMVWVRQAPGKGLEWVASISSGSSNIYYADTVKGRFTISRDNAKNTLYLQMNSLRAEDTAVYYCARNPYWGQGTLVTVSS VL: DIQMTQSPSSLSASVGDRVTITCKASQNVGTNVAWYQQKPGKAPKGLIYSASHRYSGVPSRFSGSGSGTDFTLTISSLQPEDFATYYCQQYNSYPLTFGGGTKVEIKR
8 nM	13.4 µg/mL	0.75 nM	0.00124 s⁻¹	1.6e+06 M⁻¹ s⁻¹	–	–	–	additional humanized anti-IL-12 antibody 8E1.5 (antibody, IgG1, V domains shown, IgG1/kappa) VH: EVQLVESGGGLVQPGGSLRLSCAASGFTFSDYGMVWVRQAPGKGLEWVASISSGSSNIYYADTVKGRFTISRDNAKNTLYLQMNSLRAEDTAVYYCARNPYWGQGTLVTVSS VL: DIQMTQSPSSLSASVGDRVTITCKASQNVGTNVAWYQQKPGKAPKGLIYSASHRYSGVPDRFSGSGSGTDFTLTISSLQPEDFATYYCQQYNSYPLTFGGGTKVEIKR
–	1.61 µg/mL	0.046 nM	8e-05 s⁻¹	1.7e+06 M⁻¹ s⁻¹	2.1 µg/mL	2.43 µg/mL	2.25 µg/mL	additional humanized anti-IL-12 antibody 8E1.6 (antibody, V domains shown, IgG1/kappa, expressed in 293T/17 cells from pVg1.D.Tt (D356E L358M, L234A L235A) and pVk) VH: EVQLVESGGGLVQPGGSLRLSCAASGFTFSDYGMVWVRQAPGKGLEWVASISSGSSNIYYADTVKGRFTISRDDAKNTLYLQMNSLRAEDTAVYYCARNPYWGQGTLVTVSS VL: DIQMTQSPSSLSASVGDRVTITCKASQNVGTNVAWYQQKPGKAPKGLIYSASHRYSGVPSRFSGSGSGTDFTLTISSLQPEDFATYYCQQYNSYPLTFGGGTKVEIKR
